Test results from the supplement of paper PMC9170038.

Columns and labels:
Conditions in all cases: FMN input: 0 or 200 uM; Eterna round: R93 (includes R88 designs)
[1] = test system: MS2 coat protein; assay: apparent KD of MS2 coat protein, switch ON state; designed switch direction (-1 OFF switch, 1 ON switch): 1; higher = weaker reporter binding
In short: (§1)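 Apparent KD per design is the median of normalised cluster binding-curve fits. Designed RNA switches transcribed on-chip from Illumina sequencing clusters were titrated with SNAP-549-labelled MS2 coat protein in twofold steps from 0.7 or 1.5 nM to 3 µM, with 0.8–1.5 h down to 10–20 min per step. Buffer: 100 mM Tris-HCl pH 7.5, 80 mM KCl, 4 mM MgCl2, without or with constant ligand.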

[2] = test system: MS2 coat protein; assay: apparent KD of MS2 coat protein, switch OFF state (with FMN for OFF switches, without FMN for ON switches); designed switch direction (-1 OFF switch, 1 ON switch): 1; higher = weaker reporter binding
In short: as §1

[3] = test system: MS2 coat protein; assay: apparent KD of MS2 coat protein, switch ON state; designed switch direction (-1 OFF switch, 1 ON switch): -1; higher = weaker reporter binding
In short: as §1

[4] = test system: MS2 coat protein; assay: apparent KD of MS2 coat protein, switch OFF state (with FMN for OFF switches, without FMN for ON switches); designed switch direction (-1 OFF switch, 1 ON switch): -1; higher = weaker reporter binding
In short: as §1

Row | Sequence | apparent KD of MS2 coat protein [1] [nM] | apparent KD of MS2 coat protein [2] [nM] | apparent KD of MS2 coat protein [3] [nM] | apparent KD of MS2 coat protein [4] [nM]
1 | CAUCAUGCGCCUAAGGAUAUGUCUCACAAGACAUGAGGAUCACCCAUGUAGAAUAAAUAAAUGAUGCAGAAGGUGGAGUGCAUGC [Rierre] | 72.1 | 334 |  | 
2 | AAAAAACAUGAGGAUCACCCAUGUGCAAAAUUCGCAGGAUAUUCUUCUCUUAAAUGAGAGGGAGAAGGGUGUAAAA [Nob's Hobby 24 - Jieux - Same State 1] | 18.2 | 43.3 |  | 
3 | AAAAAACAUGAGGAUCACCCAUGUAAUUAAAACGCAGGAUAUAGAAAAAAAAAAAUGUUACUAGAAGGGUGAAAAA ['Same State 1'] | 113 | 62.9 |  | 
4 | AUCUAACAUGAGGAUCACCCAUGUAUUCAAAAACAAGGAUAUAUAACAAACAAACAACAAAUAGAAGGUGUAAAUA [Default title] | 19 | 19.6 |  | 
5 | AAUCCAACUAGUCAGGAUAUCAGGCGUAAGACAUGAGGAUCACCCAUGUACUUAGUACAAGUAACUGAGAAGGGACAGGGUGACC [JR_SS002_Sub409] | 75.4 | 75.5 |  | 
6 | AAAAAACAUGAGGAUCACCCAUGUAAUAAAACGUCAGGAUAUUGAUUUUAUUAUUUAUUGCGAGAAGGGACAAAAA [Same State 1 - Omei 3] | 20.2 | 28.6 |  | 
7 | AAAAGACAUGAGGAUCACCCAUGUCAAAACGUAGGAGGAUAUGUCGUGAAAAAAGACUUGGCAGAAGGCCUGUGUC [SS1 - 42] | 15.4 | 19.5 |  | 
8 | AAAAAACAUGAGGAUCACCCAUGUCGAAAGACAUGAGGAUAUGUGUGGAAACCAUACUAUACAGAAGGCAUAAAAA [SS1 - 1009] | 82.6 | 66.1 |  | 
9 | AAGAAACAUGAGGAUCACCCAUGUAGAAAUAUGGGAGGAUAUACGAAGACGAAAGUCGAAGUAGAAGGCCUAAGAA [Mat - Same State 1 - Meechl mod - D131] | 15.1 | 71.9 |  | 
10 | AAUAAACAUGAGGAUCACCCAUGUGAAAAUAUGGGAGGAUAUAGGAAAAAAAAAAAAAAACUAGAAGGCCCAAAAA [SS! 1 MT 12] | 75.3 | 138 |  | 
11 | AUAAAACAUGAGGAUCACCCAUGUAGAAAUAUGGGAGGAUAUACAAAGACGAAAGUCGAAGUAGAAGGCCUAAAAG [Mat - Same State 1 - Meechl mod - D117] | 27.4 | 68.3 |  | 
12 | GGAUACAUACAGAAGGAUAUGAGAACAAAGACAUGAGGAUCACCCAUGUACAAAAGGUGGAACAAUCAGAAGGUCUAAACAACAAA [Club and Ball] | 57.6 | 52.1 |  | 
13 | CAUCAUGCGCCUAAGGAUAUGUCUCACAAGACAUGAGGAUCACCCAUGUAUAAUAAAUAAAUGAUGCAGAAGGUGGAGUGCAUGC [Latibe] | 87.7 | 245 |  | 
14 | AAAAAACAUGAGGAUCACCCAUGUGAGAACAUGGGAGGAUAUACGAGGACGAGAGUCAUAGUAGAAGGCCUAAAAA [Garnet 67] | 109 | 65.6 |  | 
15 | AAAAAACAUGAGGAUCACCCAUGUGAAAAAAUCGCAGGAUAUCCCUUUUUUAAAUGGGAGGGAGAAGGGUGAAAAA [Nob's Hobby 15 - Jieux - Same State 1] | 40.3 | 84.7 |  | 
16 | AACAAUCUAUCUGAGGAUAUGUGUCGAAAGACAUGAGGAUCACCCAUGUAAAAACAUGAAAAAUCACAGAAGGCAGAUAGAUUGA [SS2: 1144] | 59.3 | 144 |  | 
17 | CUCAUGUCAGGAUAUCAGUAGUAAAAAAAAAAAAUUACUACUGAGAAGGGACAUGAGGAUCACCCAUGUACCUU [EX4 302: Super Stable 2] |  |  | 25.4 | 29.1
18 | AGCUAGUCAGGAUAUACGAAAAUGACAGAAGACGUAAGGGAACAUGAGGAUCACCCAUGUAGAAGGGACUAGCA [Diamond 42] |  |  | 26.6 | 67.7
19 | AAAAAUCGAGGAUAUACAUGAGGAUCACCCAUGUCAAAAAAUGACUACACAAAAGAAAGUAGAAGGCGAUAAAA [Ex 3 May 17] |  |  | 28.5 | 31

Row | Sequence | apparent KD of MS2 coat protein [1] [nM] | apparent KD of MS2 coat protein [2] [nM] | apparent KD of MS2 coat protein [3] [nM] | apparent KD of MS2 coat protein [4] [nM]
20 | GUCAGCUGAGGAUAUACAGGUGAGGCCGCAUAACAAAAUAUACAUGAGGAUCACCCAUGUAGAAGGCGGAAGAC [Soreramare] |  |  | 41.1 | 47.6
21 | AAGAAGCGAGGAUAUACAUGAAAGAAAGAAAAGAAAAGAAAACAUGAGGAUCACCCAUGUAGAAGGCGCAAGAA [EteRNA is fun!] |  |  | 21.4 | 28.2
22 | AAAAAGGGAGGAUAUGCAUACACACAAAAAAAAAAAAAAAAACAUGAGGAUCACCCAUGUAGAAGGCCCAAAAA [Dora Explored 4 - Jieux - Exclusion 2] |  |  | 21.1 | 14.4
23 | AAACCACAUGAGGAUCACCCAUGUUAGGAUAUGCUAUGGAAAAUAAAAAUAAAACAUAGCAGAAGGGACAAAAA [Denovo 7] |  |  | 19.3 | 18.7
24 | AAAGAGUGAGGAUAUUCGGAUAGGAAAACGAAAACCUAUCCGAAGAAGGCACAUGAGGAUCACCCAUGUAAAAA [67% Ecls-II - Early G segment 2] |  |  | 37.3 | 39.5
25 | AGCUAGUCAGGAUAUACGAACAUGUCAAAAGACGUGAGGGAACAUGAGGAUCACCCAUGUAGAAGGGACUAGCA [Moving G segment in JL's topscorer (74%)] |  |  | 36.6 | 37.5
26 | AAUAAACAUGAGGAUCACCCAUGUGAGGAUAUGGUAUUAUUAGGACAGUAAUGAUAUACCAGAAGGCACAAAUA [JR_Exc001_Sub1104] |  |  | 36.9 | 53.5
27 | AAGAAGGUAGGAUAUACUAAAGAAAUAAAAAUAAAUAAAGAACAUGAGGAUCACCCAUGUAGAAGGGCCAAGAA [Merkheperre] |  |  | 54.4 | 50.8
28 | AGCUAGUCAGGAUAUACGAGAAUGACAAAAGACGUGAAGGGACAUGAGGAUCACCCAUGUAGAAGGGACUAGCA [Diamond 24] |  |  | 39.2 | 117
29 | GUAGUGUGAGGAUAUGGAAAGAAGAAGAAAAGGUAGAAAAACUAGAAGGCACAUGAGGAUCACCCAUGUAAGAA [JR_Exc004_Sub1710] |  |  | 29.1 | 20.3
30 | AACAGUACAGGAUAUACAUGAGGAUCACCCAUGUGAAAAUUAAGUGGCGUACCACAGUGUAGAAGGGUACUGGA [Moding Maslow Revisited (73) 25] |  |  | 87.9 | 62.7
31 | UAUACGUGAGGAUAUGCGAAUACCACGUAAGACAUACAGACGCAGAAGGCACAUGAGGAUCACCCAUGUGAACC [JR_Exc004_Sub314] |  |  | 19.2 | 16.3
32 | UCGUGGUCAGGAUAUACAUGAGGAUCACCCAUGUAAAAGAACACAAAGGAGAGACGACGUAGAAGGGACAAAUA [Erqugere] |  |  | 43.7 | 42.1
33 | AAAAAGUGAGGAUAUACAUGAGGAUCACCCAUGUGAAAUCGGAAAAAAAACGAAAAAAGUAGAAGGCACAAAAA [Fiskers Exclusion 3 D3] |  |  | 19.1 | 22.1
34 | AAAAAGCGAGGAUAUACAUGAGGAUCACCCAUGUGAAAGUCGAAAAAAAAGACAAAAAGUAGAAGGCGCAAAAA [Banishment 7 - Jieux - Exclusion 3] |  |  | 18.3 | 22.8
35 | AAAAAUGGAGGAUAUACAUGAGGAUCACCCAUGUGUAAAAAAAAUUACACAAAAGAAAGUAGAAGGCCAUAAAG [Mat - Exclusion 3 - Mayanna mod - D108] |  |  | 59.3 | 139
36 | AAGAAACGAGGAUAUACAAAAUAAAAGAAAAGAAAGAAAGAACAUGAGGAUCACCCAUGUAGAAGGCGUAAGAA [Wahibre Ibiau] |  |  | 44.6 | 30.3
37 | CUCUUGUGAGGAUAUCGAAGAAAAGAAAAGAAAGAAAAGAACGAGAAGGCACAUGAGGAUCACCCAUGUAAGAA [EteRNA is fun!] |  |  | 53.1 | 61.8
38 | GGAUGUCUAGGAUAUACAUGAGGAUCACCCAUGUGAGAGAAAAAAGUGAGAAAGAAAAGUAGAAGGAGGUGUCG [salish99-ex3-88] |  |  | 35.6 | 37.5
